Experimental data taken from US20230106131A1 (OHIO STATE INNOVATION FOUNDATION, published 2023).
Blank lines part the entries; values can stand above or below the binder they belong to. Numbered stars: 1 amine (or outer) side, 2 acyl side, 3 side chain; on linkers, the order of the positions; unused ones are H or OH. Bridge positions count the residues as written; N and C are the ends. Square brackets hold non-standard residues; d marks the D form. Side chains are listed from the residue outwards. Ends that are not written are not given here. * marks the point of attachment. aminooxyacetyl = aminooxyacetyl (from Boc-aminooxyacetyl acylation of Lys side-chain amine), NOCC(=O)*; 2Nal = N[C@@H](Cc1ccc2ccccc2c1)C(=O)O; mXylylene = c1cc(C[*:1])cc(C[*:2])c1; CH2COCH2 = O=C(C[*:1])C[*:2]; hCys = N[C@@H](CCS)C(=O)O; AEEA = NCCOCCOCC(=O)O

How the values were obtained:
[1] = molecular target: T1, GST-MDM2 (human MDM2 residues 17-125) (human, UniProt Q00987 17-125); test: direct binding of the FITC-labeled peptide to MDM2 (the text differs from Table 7)
T1 construct: range 17-125; No removal of GST is reported; not shown: glutathione S-transferase (GST) tag encoded by vector pGEX-6P-2

[2] = molecular target: T1, GST-MDM2 (human MDM2 residues 17-125); test: ratio of KD values of FITC-labeled peptides
[3] = molecular target: T1, GST-MDM2 (human MDM2 residues 17-125); test: direct binding of the FITC-labeled peptide to MDM2
[4] = molecular target: T1, GST-MDM2 (human MDM2 residues 17-125); test: direct binding of the FITC-labeled peptide to MDM2; remark: listed apart in the source
[5] = molecular target: T1, GST-MDM2 (human MDM2 residues 17-125); test: fluorescence anisotropy competition with FITC-labeled peptide 1 for MDM2

B2: peptide 2 (PDI with homocysteine at Glu-4 and Ala-8, stapled with DCA, FITC-labeled) (peptide)
peptide: LTFXHYWXQLTS
modifications: not fully specified; homocysteine at 4 and 8, joined by a 1,3-dichloroacetone (DCA) staple; FITC label; the rest of the structure only in drawing CHEM-US-00019
notes: X stands for homocysteine; also called 3-1-1-DCA
Kd [4]: 144 nM

B3: peptide 6, Ac-LTFCHYWCQLTS-miniPEG-K(FITC)-NH2, stapled (peptide)
peptide: Ac-LTFCHYWCQLTS-{AEEA-K(FITC)-NH2}
modifications: bridge 4-8; not fully specified (bridges); printed as Ac-LTFCHYWCQLTS-miniPEG-K(FITC)-NH
notes: No CPP
fold decrease of MDM2-binding affinity against peptide 1 [2]: ~2.5 fold
Kd [3]: 190 nM

B6: peptide 4 (DCA-stapled peptide 2 conjugated to CPP9 through an oxime, stereoisomer 1, unlabeled) (peptide)
peptide 1: LTF[hCys]HYW[hCys]QLTS
peptide 2: [dF][2Nal]R[dR]R[dR]Q([AEEA-Lys-aminooxyacetyl])
modifications: thioether (positions not given here) via CH2COCH2; not fully specified (bridges); also: oxime stereoisomer 1 (peak 1), Z/E not determined, further groups not given here, head-to-tail to a chain's N/C-terminus
notes: Peptides 4 and 5 are the two isomers separated by HPLC; also called 3-1-1-DCA-CP9 peak1
IC50 [5]: 220 nM

B8: peptide 5 (DCA-stapled peptide 2 conjugated to CPP9 through an oxime, stereoisomer 2, unlabeled) (peptide)
peptide 1: LTF[hCys]HYW[hCys]QLTS
peptide 2: [dF][2Nal]R[dR]R[dR]Q([AEEA-Lys-aminooxyacetyl])
modifications: thioether (positions not given here) via CH2COCH2; not fully specified (bridges); also: oxime stereoisomer 2 (peak 2), Z/E not determined, further groups not given here, head-to-tail to a chain's N/C-terminus
notes: also called 3-1-1-DCA-CP9 peak2
IC50 [5]: 201 nM

B9: peptide 3 (PDI with homocysteine at His-5 and Gln-9, stapled with DCA, FITC-labeled) (peptide)
peptide: LTFEXYWAXLTS
modifications: not fully specified; homocysteine at 5 and 9, joined by a 1,3-dichloroacetone (DCA) staple; FITC label; the rest of the structure only in drawing CHEM-US-00020
notes: X stands for homocysteine
Kd [4]: 171 nM

B10: peptide 7, Ac-LTFCHYWCQLTS-miniPEG-K(FITC)-NH2, stapled with BBA-CPP9 (peptide)
peptide 1: LTFCHYWCQLTS
peptide 2: FXRRRRQ
modifications: head-to-tail cyclic; D-Phe at 1, L-2-naphthylalanine at 2, D-Arg at 4 and 6; miniPEG-Lys linker, with the Lys side chain acylated by the BBA staple; N-terminal acetyl; Cys 4 and Cys 8 joined by a 3,5-dimethylbenzoyl (BBA) staple that carries CPP9; C-terminal miniPEG-Lys(FITC) amide
fold decrease of MDM2 binding affinity against peptide 6 [2]: ~2 fold
Kd [3]: ~300 nM

The next lines start with the values.

Kd [1]: 14 nM
fold improvement of MDM2 binding affinity against peptide 1 [2]: 5 fold
Kd [3]: 15 nM
B1: peptide 8, Ac-LTFhCHYWhCQLTS-miniPEG-K(FITC)-NH2, stapled (peptide)
peptide: Ac-LTF[hCys]HYW[hCys]QLTS-{AEEA-K(FITC)-NH2}
modifications: bridge 4-8; not fully specified (bridges)
notes: No CPP

fold improvement of binding affinity against peptide 6 [2]: 5 fold
Kd [3]: 36 nM
B4: peptide 10, Ac-ETFCHYWCQLTS-miniPEG-K(FITC)-NH2, xylene-stapled (peptide)
peptide: Ac-ETFCHYWCQLTS-{AEEA-K(FITC)-NH2}
modifications: linker 4-8 via mXylylene
notes: No CPP

Kd [3]: 187 nM
B5: peptide 12, Ac-EETFCHYWCQLTS-miniPEG-K(FITC)-NH2, xylene-stapled (peptide)
peptide: Ac-EETFCHYWCQLTS-{AEEA-K(FITC)-NH2}
modifications: linker 5-9 via mXylylene
notes: No CPP

Kd [3]: 365 nM
B7: peptide 13, Ac-EETFCHYWCQLTS-miniPEG-K(FITC)-NH2, stapled with BBA-CPP9 (peptide)
peptide 1: EETFCHYWCQLTS
peptide 2: FXRRRRQ
modifications: head-to-tail cyclic; D-Phe at 1, L-2-naphthylalanine at 2, D-Arg at 4 and 6; miniPEG-Lys linker, with the Lys side chain acylated by the BBA staple; N-terminal acetyl; Cys 5 and Cys 9 joined by a 3,5-dimethylbenzoyl (BBA) staple that carries CPP9; C-terminal miniPEG-Lys(FITC) amide

fold decrease of MDM2 binding affinity against peptide 10 [2]: 6 fold
Kd [3]: 225 nM
B11: peptide 11, Ac-ETFCHYWCQLTS-miniPEG-K(FITC)-NH2, stapled with BBA-CPP9 (peptide)
peptide 1: ETFCHYWCQLTS
peptide 2: FXRRRRQ
modifications: head-to-tail cyclic; D-Phe at 1, L-2-naphthylalanine at 2, D-Arg at 4 and 6; miniPEG-Lys linker, with the Lys side chain acylated by the BBA staple; N-terminal acetyl; Cys 4 and Cys 8 joined by a 3,5-dimethylbenzoyl (BBA) staple that carries CPP9; C-terminal miniPEG-Lys(FITC) amide
